Experiments:
Fao cells [1] = assay: Effect of inducers of insulin resistance on insulin-stimulated Tyr phosphorylation of IRS-1 in Fao cells; type: cell-based, rat
Method: FIGS. 5a-c show the effects of TPA and anisomycin on insulin-induced Tyr phosphorylation of IRS-1^7A in Fao cells. Fao cells were infected with Ad-Myc-IRS-1^WT or Ad-Myc-IRS-1^7A at 7×10^7 PFU/ml. Following 48 hours the cells were deprived of serum for 16 h, and were then treated for 60 min with 200 nM TPA (FIG. 5a); 50 ng/ml of anisomycin (FIG. 5b) or 1 μg/ml of anisomycin (FIG. 5c). This was followed by treatment with 100 nM insulin for 2 min (FIG. 5a) or for the indicated times (FIGS. 5b-c). Cell extracts were prepared, and samples (1 mg) were subjected to immunoprecipitation (IP) with anti-Myc antibodies (FIG. 5a). Immunocomplexes were resolved on 7.5 SDS-PAGE and were immunoblotted with the indicated antibodies. Alternatively, total cell extracts (FIGS. 5b-c) were resolved on 7.5% SDS-PAGE and immunoblotted with the indicated antibodies. Results of a representative of four experiments are presented. The results of two independent experiments done in duplicates were quantified (FIG. 5a, right panel).
FIGS. 6a-b show the dose dependent effect of Palmitic acid on Insulin-induced Tyr phosphorylation of IRS-1 mutants in Fao cells. Fao cells were infected with Ad-Myc-IRS-1^WT or Ad-Myc-IRS-1^7A at 7×10^7 PFU/ml. Following 24 hours the cells were deprived of serum for 12 h, and were then further incubated for 12 h with or without the indicated concentrations of palmitic acid in serum free medium prior to being stimulated with 100 nM insulin for the indicated times. Cell extracts (100 μg) were resolved on 7.5% SDS-PAGE and immunoblotted with anti-PY and anti-Myc antibodies. The results of two independent experiments done in duplicates were quantified.
(§1) FIGS. 11a-c show the effects of TPA and anisomycin on insulin-stimulated Tyr phosphorylation of IRS-1^WT, IRS-1^7A and IRS-1^408A. Fao cells were infected with Adeno-myc-IRS-1 wild type (WT); the 7A mutant; or the S408A mutant at a titer of 4-6×10^7 PFU/ml. Following 48 hours the cells were deprived of serum for 16 h, and were then treated for 60 min with 200 nM TPA (FIG. 11a), or 50 ng/ml anisomycin (FIG. 11b), followed by treatment with 100 nM insulin for the indicated times. Cell extracts were prepared, samples (1 mg) were subjected to immunoprecipitation (IP) with anti-Myc antibodies. Immunocomplexes were resolved on 7.5% SDS-PAGE and immunoblotted with anti-PY or anti IRS-1 antibodies.
Infection of Fao cells with adenovirus—Fao cells were grown in RPMI medium containing 10% FCS. At 70% confluence cells were infected with adenoviruses harboring the gene of interest at a titer of 7 10^7 PFU/ml. After incubation for 2 h hours at 37° C., the virus-containing medium was diluted 1:5 in fresh RPMI medium. After 24 h the medium was replaced with a fresh RPMI medium containing 10% FCS. […]

Fao cells [2] = assay: Insulin-induced Tyr phosphorylation of Myc-IRS-1 in adenovirus-infected Fao cells; type: cell-based, rat; settings: 60 min insulin
Method: FIGS. 3a-b show Insulin-induced Tyr phosphorylation of IRS-1^7A in Fao cells. FIG. 3a—Fao cells were infected with Ad-Myc-IRS-1^WT or Ad-Myc-IRS-1^7A at 7×10^7 PFU/ml. Following 48 hours, the cells were starved in serum-free RPMI medium for 16 h and were then treated with insulin for the indicated times. Cell extracts were prepared and samples (1 mg) were subjected to immunoprecipitation (IP) with anti-Myc antibodies. Immunocomplexes were resolved on 7.5% SDS-PAGE and immunoblotted with anti-pY antibodies. In parallel, samples (100 μg) of total cell extracts were resolved on 7.5% SDS-PAGE and immunoblotted with anti-Myc antibodies. FIG. 3b—The bands corresponding to anti-pY/total Myc-IRS-1 were quantified by densitometry and are presented as a bar graph. Results are of a representative experiment carried out in duplicate.
as §1, with “Cell extracts were prepared, samples (1 mg) were subjected to immunoprecipitation (IP) with anti-Myc antibodies. Immunocomplexes were resolved on 7.5% SDS-PAGE and immunoblotted with anti-PY or anti IRS-1 antibodies.” left out

B1: IRS-1^408A: mouse IRS-1 with Ser408 mutated to Ala (protein)
chain: MEQKLISEEDLNMASPPPDTDGFSDVRKVGYLRKPKSMHKRFFVLRAASEAGGPARLEYYENEKKWRHKSSAPKRSIPLESCFNINKRADSKNKHLVALYTRDEHFAIAADSEAEQDSWYQALLQLHNRAKAHHDGAGGGCGGSCSGSSGVGEAGEDLSYDTGPGPAFKEVWQVILKPKGLGQTKNLIGIYRLCLTSKTISFVKLNSEAAAVVLQLMNIRRCGHSENFFFIEVGRSAVTGPGEFWMQVDDSVVAQNMHETILEAMRAMSDEFRPRSKSQSSSSCSNPISVPLRRHHLNNPPPSQVGLTRRSRTESITATSPASMVGGKPGSFRVRASSDGEGTMSRPASVDGSPVSPSTNRTHAHRHRGSSRLHPPLNHSRSIPMPSSRCSPSATSPVSLSSSSTSGHGSTSDCLFPRRSAASVSGSPSDGGFISSDEYGSSPCDFRSSFRSVTPDSLGHTPPARGEEELSNYICMGGKGASTLAAPNGHYILSRGGNGHRYIPGANLGTSPALPGDEAAGAADLDNRFRKRTHSAGTSPTISHQKTPSQSSVASIEEYTEMMPAAYPPGGGSGGRLPGYRHSAFVPTHSYPEEGLEMHHLERRGGHHRPDTSNLHTDDGYMPMSPGVAPVPSNRKGNGDYMPMSPKSVSAPQQIINPIRRHPQRVDPNGYMMMSPSGSCSPDIGGGSSSSSSISAAPSGSSYGKPWTNGVGGHHTHALPHAKPPVESGGGKLLPCTGDYMNMSPVGDSNTSSPSECYYGPEDPQHKPVLSYYSLPRSFKHTQRPGEPEEGARHQHLRLSSSSGRLRYTATAEDSSSSTSSDSLGGGYCGARPESSLTHPHHHVLQPHLPRKVDTAAQTNSRLARPTRLSLGDPKASTLPRVREQQQQQQSSLHPPEPKSPGEYVNIEFGSGQPGYLAGPATSRSSPSVRCPPQLHPAPREETGSEEYMNMDLGPGRRATWQESGGVELGRIGPAPPGSATVCRPTRSVPNSRGDYMTMQIGCPRQSYVDTSPVAPVSYADMRTGIAAEKASLPRPTGAAPPPSSTASSSASVTPQGATAEQATHSSLLGGPQGPGGMSAFTRVNLSPNHNQSAKVIRADTQGCRRRHSSETFSAPTRAGNTVPFGAGAAVGGSGGGGGGGSEDVKRHSSASFENVWLRPGDLGGVSKESAPVCGAAGGLEKSLNYIDLDLAKEHSQDCPSQQQSLPPPPPHQPLGSNEGNSPRRSSEDLSNYASISFQKQPEDRQ
- protection against the inhibitory effects of anisomycin (Fao cells [1]; 50 ng/ml anisomycin 60 min): could not protect
- protection from the inhibitory effects of TPA on insulin-stimulated Tyr phosphorylation (Fao cells [1]; 200 nM TPA 60 min): partially prevented
- Tyr phosphorylation level after prolonged insulin treatment (Example 9) (Fao cells [2]): reduced to a similar extent

— patent publication US20110104167A1, “Compositions and Methods for Diagnosing and Treating Insulin Resistance” (YEDA RESEARCH AND DEVELOPMENT CO. LTD., priority 2004, published 2011)
